Two compounds from patent publication US12152264B2, “Phosphinothricin dehydrogenase mutant, genetically engineered bacterium and one-pot multi-enzyme synchronous directed evolution method” (ZHEJIANG UNIVERSITY OF TECHNOLOGY, priority 2020, dated 2024) can be followed below.

Data set [1] relates to CP(=O)(O)CCC(=O)C(=O)O. Put plainly: cells, lysate or membranes named. As to conditions: pH 7.0; 40.0 °C.
Data set [2] deals with Pseudomonas fluorescens phosphinothricin dehydrogenase (PPTDH, PfGluDH; WP_150701510.1) mutant A164G_R205K_T332A, SEQ ID No.1. In kind it is biochemical.

On to “Pseudomonas fluorescens phosphinothricin dehydrogenase (PPTDH, PfGluDH; NCBI accession number WP_150701510.1), wild type (Pseudomonas azerbaijanoccidentalis)”, for which, in data set [1], the Michaelis-Menten constant (Km) turned out to be 6.12 ± 0.32 mM, the kcat came to 7.47 ± 0.22 s⁻¹ and the catalytic efficiency (kcat/Km) was found to be 1220 M⁻¹ s⁻¹.

Regarding `CP(=O)(O)CCC(=O)C(=O)O` [PPO, 2-carbonyl-4-(hydroxymethylphosphono)butyric acid], in data set [2], the “catalytic efficiency (kcat/Km) for PPO, increase compared with the wild type” value was found to be 145.83 times.
